# Test results taken from PMC9757036.
# B1: T6:P9 (D11) (dsDNA)
# DNA 1: AATACATAAGCGCTCCAGGCAAT
# DNA 2: GCCTGGAGCGC
# modifications: primer 3' ddC
# B2: T7:P12 (R8-D3) (mixed)
# DNA: AATACATAATCGCTCCAGGCAAT
# RNA: GCCUGGAGCGC
# modifications: primer nt 1-8 RNA, nt 9-11 DNA, 3' ddC
# B3: T6:P12 (R8-D3) (mixed)
# DNA: AATACATAAGCGCTCCAGGCAAT
# RNA: GCCUGGAGCGC
# modifications: primer nt 1-8 RNA, nt 9-11 DNA, 3' ddC
# B4: T7:P9 (D11) (dsDNA)
# DNA 1: AATACATAATCGCTCCAGGCAAT
# DNA 2: GCCTGGAGCGC
# modifications: primer 3' ddC
# B5: T8:P9 (D11) (dsDNA)
# DNA 1: AATACATAAACGCTCCAGGCAAT
# DNA 2: GCCTGGAGCGC
# modifications: primer 3' ddC
# B6: T8:P12 (R8-D3) (mixed)
# DNA: AATACATAAACGCTCCAGGCAAT
# RNA: GCCUGGAGCGC
# modifications: primer nt 1-8 RNA, nt 9-11 DNA, 3' ddC
# Biological target: DNA polymerase alpha catalytic domain (hPolα, hPolαCD) (human, UniProt P09884 335-1257)
# Sequence (P09884 335-1257): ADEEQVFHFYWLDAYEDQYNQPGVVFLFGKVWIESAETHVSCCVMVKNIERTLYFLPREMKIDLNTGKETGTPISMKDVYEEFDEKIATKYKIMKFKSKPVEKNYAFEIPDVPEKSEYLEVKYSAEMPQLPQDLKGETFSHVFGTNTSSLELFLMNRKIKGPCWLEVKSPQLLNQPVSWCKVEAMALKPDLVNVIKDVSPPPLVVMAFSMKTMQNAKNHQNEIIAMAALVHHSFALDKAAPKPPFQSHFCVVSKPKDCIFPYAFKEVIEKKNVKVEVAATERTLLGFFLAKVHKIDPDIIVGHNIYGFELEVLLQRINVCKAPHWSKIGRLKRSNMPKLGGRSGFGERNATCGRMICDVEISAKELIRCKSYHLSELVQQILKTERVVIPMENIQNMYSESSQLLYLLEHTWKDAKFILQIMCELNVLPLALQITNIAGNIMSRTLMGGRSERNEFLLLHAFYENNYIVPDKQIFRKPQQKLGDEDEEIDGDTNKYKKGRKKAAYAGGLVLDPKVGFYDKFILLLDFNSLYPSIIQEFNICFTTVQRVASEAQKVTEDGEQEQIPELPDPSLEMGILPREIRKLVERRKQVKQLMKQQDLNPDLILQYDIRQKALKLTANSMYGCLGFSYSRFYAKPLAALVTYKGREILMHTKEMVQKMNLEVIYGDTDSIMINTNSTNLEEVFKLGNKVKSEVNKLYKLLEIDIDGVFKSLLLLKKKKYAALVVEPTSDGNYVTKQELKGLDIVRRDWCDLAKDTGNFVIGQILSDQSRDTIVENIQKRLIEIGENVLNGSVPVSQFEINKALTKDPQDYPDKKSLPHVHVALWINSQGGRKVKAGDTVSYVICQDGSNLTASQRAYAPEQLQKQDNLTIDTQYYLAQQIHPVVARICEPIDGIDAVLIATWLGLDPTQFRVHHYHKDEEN
# Test: BLI
row,Binder,Kd
1,B1,146 ± 17 nM
2,B2,198 ± 9.2 nM
3,B3,11.3 ± 0.69 nM
4,B4,1130 ± 94 nM
5,B5,1880 ± 33 nM
6,B6,730 ± 51 nM
